In patent US20230279131A1 (published 2023):

Assays:
[1] = target: T1, D1 domain of human IL-2Rγ extracellular domain expressed with a C-terminal myc-myc-hexahistidine tag (human); assay: SPR Biacore 4000, mAb captured on anti-hFc, 25°C
T1 construct: whole entry is the tagged construct
T1 chain: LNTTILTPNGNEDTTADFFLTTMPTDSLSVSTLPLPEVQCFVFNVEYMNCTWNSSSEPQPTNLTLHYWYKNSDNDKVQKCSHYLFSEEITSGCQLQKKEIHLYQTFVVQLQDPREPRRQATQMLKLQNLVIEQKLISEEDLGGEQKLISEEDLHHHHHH
Method: (§1) Equilibrium dissociation constants (KD values) for IL-2Rγ binding to purified anti-IL2Rγ monoclonal antibodies were determined using a Biacore 4000 instrument equipped with a real-time surface plasmon resonance biosensor. All binding studies were performed in 10 mM HEPES, 150 mM NaCl, 3 mM EDTA, and 0.05% v/v Surfactant Tween-20, pH 7.4 (HBS-ET) running buffer at 25° C. and 37° C. The Biacore sensor surface was first derivatized by amine coupling with a monoclonal mouse anti-human Fc antibody (GE, #BR-1008-39) to capture anti-IL2Rγ monoclonal antibodies.

[2] = target: T1, D1 domain of human IL-2Rγ extracellular …; assay: SPR Biacore 4000, mAb captured on anti-hFc, 37°C
Method: as §1

[3] = target: T2, D2 domain of human IL2Rγ extracellular domain expressed with a C-terminal myc-myc-hexahistidine tag (human); assay: SPR Biacore 4000, mAb captured on anti-hFc, 25°C
T2 construct: whole entry is the tagged construct
T2 chain: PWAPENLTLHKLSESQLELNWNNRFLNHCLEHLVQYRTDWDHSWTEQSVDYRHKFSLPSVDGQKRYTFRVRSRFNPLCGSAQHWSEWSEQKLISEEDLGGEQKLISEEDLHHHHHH
Method: as §1

[4] = target: T2, D2 domain of human IL2Rγ extracellular …; assay: SPR Biacore 4000, mAb captured on anti-hFc, 37°C
Method: as §1

[5] = target: T3, human IL-2Rγ expressed on cells (human, UniProt P31785 23-369); assay: flow cytometry on NK-92 cells, antibody at 10 µg/ml; high end of the range, tied to H4H12889P by Table 9-1
T3 construct: whole, on cells; endogenous receptor on human cells; also called IL-2Rgamma; CD132
T3 sequence (looked up): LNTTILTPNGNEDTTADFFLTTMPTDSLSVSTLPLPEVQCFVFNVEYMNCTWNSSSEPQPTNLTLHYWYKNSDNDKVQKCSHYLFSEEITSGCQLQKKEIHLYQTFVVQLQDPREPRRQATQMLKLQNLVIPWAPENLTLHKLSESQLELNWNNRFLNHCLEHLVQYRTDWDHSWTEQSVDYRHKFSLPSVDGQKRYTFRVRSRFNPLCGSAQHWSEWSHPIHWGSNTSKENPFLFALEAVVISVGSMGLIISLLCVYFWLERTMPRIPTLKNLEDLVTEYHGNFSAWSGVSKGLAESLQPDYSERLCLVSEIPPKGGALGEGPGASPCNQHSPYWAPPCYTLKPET

[6] = target: T3, human IL-2Rγ expressed on cells; assay: flow cytometry on Jurkat cells, antibody at 10 µg/ml; high end of the range, tied to H4H12889P by Table 9-1
[7] = target: T3, human IL-2Rγ expressed on cells; assay: flow cytometry on NK-92 cells, antibody at 10 µg/ml; low end of the range, tied to H4H12859P by Table 9-1
[8] = target: T4, Human IL2Rγ extracellular domain expressed with a C-terminal myc-myc-hexahistidine tag (human); assay: SPR Biacore 4000, mAb captured by anti-hFc, HBS-ET, 25C
T4 construct: also called hIL-2Rg-MMH; hIL-2RG-MMH
T4 chain: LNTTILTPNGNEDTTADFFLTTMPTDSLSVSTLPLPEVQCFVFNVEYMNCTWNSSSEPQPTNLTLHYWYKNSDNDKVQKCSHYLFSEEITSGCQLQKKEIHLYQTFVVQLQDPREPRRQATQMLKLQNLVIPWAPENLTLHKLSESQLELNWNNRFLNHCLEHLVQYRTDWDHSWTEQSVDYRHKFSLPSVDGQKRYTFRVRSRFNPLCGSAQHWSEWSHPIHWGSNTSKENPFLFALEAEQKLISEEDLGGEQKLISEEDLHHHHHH
Method: as §1

[9] = target: T4, Human IL2Rγ extracellular domain …; assay: SPR Biacore 4000, mAb captured by anti-hFc, HBS-ET, 37C
Method: as §1

[10] = target: T3, human IL-2Rγ expressed on cells; assay: flow cytometry on NK-92 cells, antibody at 10 µg/ml; low end of the range, tied to H4H13538P by Table 9-2
[11] = target: T3, human IL-2Rγ expressed on cells; assay: flow cytometry on NK-92 cells, antibody at 10 µg/ml; high end of the range, tied to 'H4H13841P' (taken as H4H13541P) by Table 9-2

B1: H4H12926P2 (antibody, human IgG4 S228P, kappa, V domains shown)
VH: QVQLQQSGPGLVKPSQTLSLTCAISGDSVSSNIAAWNWIRLSPSRGLEWLGRTFFRSTWFYDYSLSVKGRITINPDTSKNQFSLHLNSVTPEDAAVYYCARTGRRWSLDYWGQGTLVTVSS
VL: not shown
notes: anti-IL2Rγ mAb expressed with human IgG4 Fc
- 100 nM Ag Bound [1]: 8 RU
- 100 nM Ag Bound [2]: 2 RU

B2: H4H12874P (antibody, human IgG4 S228P, kappa, V domains shown)
VH: QVQLVESGGGVVQPGRSLRLSCAASGFNFRNFGMHWVRQAPGKGLEWVAGILYDGSSKYYADSVKDRFTISRDNSKNTLFLQMNSLRAEDTAMYYCAKEEDTAMVPFDSWGPGTLVTVSS
VL: DIQLTQSPSFLSASVGDRVTITCWASQGISSYLAWYQQKPGKAPTLLIYAASTLQSGVPSRFSGSGSGTEFTLTISSLQPEDFASYYCQQLKSYPLTFGGGTKVEIKR
notes: as for B1
- 100 nM Ag Bound [3]: 10 RU
- 100 nM Ag Bound [4]: 2 RU

B3: H4H12927P2 (antibody, human IgG4 S228P, kappa, V domains shown)
VH: EVQLVESGGGVVRPGGSLRLSCATSGFTFDDYGMSWVRQVPGKGLEWVSSVNRNGGTTDYADSVKGRFTISRDNAKRSLFLQMNSLRAEDTALYHCATGELFFDYWGQGTLVTVSS
VL: not shown
notes: as for B1
- 100 nM Ag Bound [3]: 14 RU
- 100 nM Ag Bound [4]: 2 RU

B4: H4H12889P (antibody, human IgG4 S228P, kappa, V domains shown)
VH: EVQLVESGGGLVQPGGSLRLSCAASGFIFSSYEMHWVRQAPGKGLEWISYISSSGTTIYYADSVKGRFTISRDNAKNSLYLHMNSLRAEDTAVYYCTRARITGTFDVFDIWGQGTMVTVSS
VL: DIQMTQSPSSLSASVGDRVTITCRASQSISSYLNWYQQKPGKAPKLLIFAASNLQSGVPSRFSGSRSGTDFTLTISSLQPEDFATYYCQQNYNIPYTFGQGTKLEIKR
notes: anti-IL2Rγ human antibody, human IgG4 Fc; also called REGN7257
- binding ratio (sample MFI over unstained MFI) [5]: 94 ratio
- binding ratio (sample MFI over unstained MFI) [6]: 19 ratio

B5: H4H12859P (antibody, human IgG4 S228P, kappa, V domains shown)
VH: QVQLVQSGAEVKKPGASVRVSCKASGYTFTDYDIHWVRQAPGHGLEWMGWINPNSGGTNYAQKFQGRVTMTRDTSISTVYMDLSRLRSDDTAVYYCARADYSSSYYYYGMDVWGQGTTVTVSS
VL: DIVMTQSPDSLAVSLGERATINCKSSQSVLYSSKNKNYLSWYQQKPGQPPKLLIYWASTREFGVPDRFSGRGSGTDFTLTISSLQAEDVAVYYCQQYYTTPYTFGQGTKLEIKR
notes: anti-IL2Rγ human antibody, human IgG4 Fc
- binding ratio (sample MFI over unstained MFI) [7]: 1 ratio

B6: H4H12926P2 (antibody, human IgG4 S228P, kappa, V domains shown)
VH: B1 VH
VL: not shown
notes: anti-IL2Rgamma monoclonal antibody expressed with human IgG4 Fc
- 100 nM Ag Bound [8]: 13 RU
- 100 nM Ag Bound [9]: 2 RU

B7: H4H12927P2 (antibody, human IgG4 S228P, kappa, V domains shown)
VH: B3 VH
VL: not shown
notes: as for B6
- 100 nM Ag Bound [8]: 18 RU
- 100 nM Ag Bound [9]: 5 RU

B8: H4H13538P (antibody, human IgG4 S228P, kappa, V domains shown)
VH: EVQLVESGGGLVQPGGSLGLSCAASGFTFSNYAMSWVRQAPGKGLEWVSAVSGGGGGTYYADSVKGRFTISRDNSKNTVLLQMNSLRAEDTAVYYCARGRTGGLDYWGPGTLVTVSS
VL: DVVMTQSPLSLPVIFGQPASISCRSSQSLVDSDGNTYLNWLQQRPGQSPRRLIYEVSNRDSGVPDRFSGSGSGTDFTLTISRVEAEDVGIYYCMQGTRWPPTFGGGTKVEIKR
notes: as for B5
- binding ratio (sample MFI over unstained MFI) [10]: 1 ratio

B9: H4H13541P (antibody, human IgG4 S228P, kappa, V domains shown)
VH: EVQLVESGGGVVRPGGSLRLSCAASGFIFDDYDMSWVRQPPGRGLEWVSGIDWFGGTRGYADSMKGRFTISRDNAKNSLYLQMNSLRVEDTAFYYCARGGAIVGAVTPFDYWGQGTLVTVSS
VL: DIQMTQSPSSLSASVGNRVTLSCRASQSINTYLSWYQQRPGKAPKLLIYAASSLQSGVPSRFSGSGAGTDFTLTISSLQPEDFATYYCQQSYSAPLTFGGGTKVEIKR
notes: anti-IL2Rγ human antibody, human IgG4 Fc; also called H4H13841P
- binding ratio (sample MFI over unstained MFI) [11]: 37 ratio
